This is an account of results in patent US20100329980A1 (GENE TECHNO SCIENCE, published 2010).

Experiment [1] deals with T1, human α4 integrin (human, UniProt P13612 34-1032).
T1 construct: whole, on cells; also called Human α4/CHO-K1 cells; CHO K1 cells expressing human α4 integrin
T1 sequence (looked up): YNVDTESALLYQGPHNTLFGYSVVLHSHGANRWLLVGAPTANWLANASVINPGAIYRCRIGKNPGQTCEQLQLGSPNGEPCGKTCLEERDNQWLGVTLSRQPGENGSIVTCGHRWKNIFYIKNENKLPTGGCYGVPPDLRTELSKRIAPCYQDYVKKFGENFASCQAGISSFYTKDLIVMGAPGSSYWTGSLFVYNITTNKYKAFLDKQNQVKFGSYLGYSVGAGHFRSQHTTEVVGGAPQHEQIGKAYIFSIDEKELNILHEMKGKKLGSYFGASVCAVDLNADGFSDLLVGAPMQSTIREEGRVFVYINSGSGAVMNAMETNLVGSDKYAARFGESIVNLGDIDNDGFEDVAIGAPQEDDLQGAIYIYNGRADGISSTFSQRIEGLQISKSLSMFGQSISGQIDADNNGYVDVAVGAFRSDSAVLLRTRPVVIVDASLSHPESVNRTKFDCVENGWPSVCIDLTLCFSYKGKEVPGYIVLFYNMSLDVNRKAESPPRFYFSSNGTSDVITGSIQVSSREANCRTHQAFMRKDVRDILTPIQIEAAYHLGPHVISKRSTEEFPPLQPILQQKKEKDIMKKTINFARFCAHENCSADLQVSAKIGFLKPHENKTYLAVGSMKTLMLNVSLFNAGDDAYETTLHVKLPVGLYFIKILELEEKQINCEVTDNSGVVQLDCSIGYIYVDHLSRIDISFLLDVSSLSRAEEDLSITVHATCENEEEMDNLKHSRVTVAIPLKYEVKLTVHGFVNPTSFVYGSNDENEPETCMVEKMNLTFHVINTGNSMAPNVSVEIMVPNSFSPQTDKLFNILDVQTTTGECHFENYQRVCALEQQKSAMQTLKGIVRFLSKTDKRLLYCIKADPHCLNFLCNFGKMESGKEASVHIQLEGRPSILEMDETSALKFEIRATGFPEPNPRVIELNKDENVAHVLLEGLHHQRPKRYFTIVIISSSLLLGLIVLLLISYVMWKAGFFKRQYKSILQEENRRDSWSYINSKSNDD
Kind of experiment: FACS, FITC-labeled anti-mouse IgG secondary. The protocol: Whether the anti-human α9 integrin antibodies were usable for FACS was examined using Human α9/CHO-K1 cells, CHO-K1 cells and human neutrophils endogenously expressing the α9 integrin. In human neutrophils, FACS analysis was conducted at the cell count of 1.0×10⁵ and antibodies were reacted on ice. Non-specific reaction with the Fc receptor was blocked with 50% goat serum. FITC-labeled anti-mouse IgG antibody was used as a secondary antibody. As a result (see FIGS. 20a, 20b and 20c), all of the anti-human α9 integrin antibodies could detect the α9 integrin on Human α9/CHO-K1 and human neutrophils. None of the antibodies reacted with Human α4/CHO-K1 cells (see FIGS. 20a, 20b and 20c).
(A flow cytometer gives signals particle by particle.)

Experiment [2] addresses T2, Human α9 integrin sequence KSPGAVFKCRVHTNPDRR (SEQ ID NO: 78) (human, also: coupled to cellulose membrane via C6-spacer and 2 βAla, end not given here).
T2 construct: Spots were twelve-residue peptides offset by three residues
T2 peptide: KSPGAVFKCRVHTNPDRR
Kind of experiment: peptide spot membrane, peroxidase-labelled antibody, ECL. How it is done: (§1) Twelve-residue polypeptides, starting from N-terminal of human α9 integrin and every three residues thereafter (i.e., amino acid residues 1-12, 4-15, 7-18, and so forth) were prepared and coupled to a cellulose membrane via C6-spacer and 2 βAla residues at 5 nmol/spot. The membrane was blocked with a blocking buffer (milk/0.05% Tween20 in PBS) and reacted with 10 ml of solution containing 1.0 μg/ml of each of the anti-human α9 integrin monoclonal antibodies (i.e., 1K11, 21C5, 24I11 and 25 B6, respectively) labeled with peroxidase for three hours at room temperature. After washing with T-TBS, the membrane was reacted with enhanced chemiluminescence (ECL) detecting reagent for 1 minute at room temperature. The luminescence emitted as a result of the enzymatic reaction is measured and epitopes of the antibodies were determined based on the luminescence intensities. As a control, Y9A2 (see Wang et al., 1996, Am J Respir Cell Mol Biol 15, 664-672), a commercially available monoclonal antibody against human α9 integrin, was used.

Experiment [3] deals with T3, Human α9 integrin sequence VMGAPGSFYWAGTIKVLN (SEQ ID NO: 82) (human, also: coupled to cellulose membrane via C6-spacer and 2 βAla, end not given here).
T3 construct: Spots were twelve-residue peptides offset by three residues
T3 peptide: VMGAPGSFYWAGTIKVLN
Described as above. How it is done: as §1

For experiment [4], the target named is T4, Human α9 integrin sequence … (SEQ ID NO: 79) (human, coupled to a cellulose membrane via C6-spacer and 2 βAla residues).
T4 construct: Spots were twelve-residue peptides offset by three residues
The experiment is described as above. The protocol:
as §1

Experiment [5] deals with T5, Human α9 integrin sequence GFCYIIPSNLQAKGRTLI (SEQ ID NO: 81) (human, also: coupled to cellulose membrane via C6-spacer and 2 βAla, end not given here).
T5 construct: Spots were twelve-residue peptides offset by three residues
T5 peptide: GFCYIIPSNLQAKGRTLI
Described as above. How it is done: as §1

Experiment [6] addresses T6, Human α9 integrin sequence CSVGFPFMRSKSKYEFSV (SEQ ID NO: 90) (human, also: coupled to cellulose membrane via C6-spacer and 2 βAla, end not given here).
T6 construct: Spots were twelve-residue peptides offset by three residues
T6 peptide: CSVGFPFMRSKSKYEFSV
Described as above. How it is done: as §1

For experiment [7], the target named is T7, Human α9 integrin sequence … (SEQ ID NO: 84) (human, coupled to a cellulose membrane via C6-spacer and 2 βAla residues).
T7 construct: Spots were twelve-residue peptides offset by three residues
Described as above. The protocol: as §1

The target in experiment [8] is T8, Human α9 integrin sequence SSSVIQFMSRAKVKVDPALRV (SEQ ID NO: 91) (human, coupled to a cellulose membrane via C6-spacer and 2 βAla residues).
T8 construct: Spots were twelve-residue peptides offset by three residues
T8 peptide: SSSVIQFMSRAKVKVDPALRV
The description is as above. The protocol:
as §1

The target in experiment [9] is T9, Human α9 integrin sequence RHYVAHVKRRVQDVISPI (SEQ ID NO: 87) (human, also: coupled to cellulose membrane via C6-spacer and 2 βAla, end not given here).
T9 construct: Spots were twelve-residue peptides offset by three residues
T9 peptide: RHYVAHVKRRVQDVISPI
The description is as above. How it is done:
as §1

For experiment [10], the target named is T10, Human α9 integrin sequence CAHRWKNIYYEADHI (SEQ ID NO: 80) (human, also: coupled to cellulose membrane via C6-spacer and 2 βAla, end not given here).
T10 construct: Spots were twelve-residue peptides offset by three residues
T10 peptide: CAHRWKNIYYEADHI
Described as above. How it is done: as §1

Experiment [11] addresses T11, Human α9 integrin sequence VIMNRRYTYLGYAVT (SEQ ID NO: 83) (human, also: coupled to cellulose membrane via C6-spacer and 2 βAla, end not given here).
T11 construct: Spots were twelve-residue peptides offset by three residues
T11 peptide: VIMNRRYTYLGYAVT
Described as above. The protocol:
as §1

Experiment [12] has as its target T1, human α4 integrin. Kind of experiment: hybridoma screening on transfected CHO-K1 cells.
Experiment [13] has as its target T12, Human α9 integrin sequence … (SEQ ID NO: 86) (human, coupled to a cellulose membrane via C6-spacer and 2 βAla residues).
T12 construct: Spots were twelve-residue peptides offset by three residues
Kind of experiment: peptide spot membrane, peroxidase-labelled antibody, ECL. The protocol:
as §1

Experiment [14] has as its target T13, Human α9 integrin sequence YLALGAVKNISL (SEQ ID NO: 89) (human, also: coupled to cellulose membrane via C6-spacer and 2 βAla (end not given here)).
T13 construct: Spots were twelve-residue peptides offset by three residues
T13 peptide: YLALGAVKNISL
The experiment is described as above. How it is done: as §1

The target in experiment [15] is T14, Human α9 integrin sequence QYSMKLSGQKINPVLRMFGQSISG (SEQ ID NO: 85) (human, coupled to a cellulose membrane via C6-spacer and 2 βAla residues).
T14 construct: Spots were twelve-residue peptides offset by three residues
T14 peptide: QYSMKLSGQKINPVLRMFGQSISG
The experiment is described as above. How it is done: as §1

Ends that are not written are not given here.

B1: 24I11 mouse anti-human α9 integrin monoclonal antibody (FERM BP-10512) (antibody, mouse IgG1, V domains shown)
VH: EVQLQQSGAELVKPGASVKLSCTASGFNIKDTYVHWVKQRPEQGLEWIGNIDPANGNTKYDPKFQGKATITADTSSNTAYLHLSSLTSEDTAVYYCARWLRHFYYAMDYWGQGTSVTVSS
VL: DIQMTQSPASLAASVGETVTITCRASENIYYSLAWYQQKQGKSPQLLIYNANSLEDGVPSRFSGSGSGTQYSMKINSMQPEDTATYFCKQAYDVPYTFGGGTKLEIK
notes: Mouse IgG1/kappa from hybridoma; also called mouse 24I11
For B1, the binding result in experiment [1] is on record as “no binding”; in [2] it was “binds”; in experiment [3], “binds”; in experiment [4] it was “binds”; in [5], “binds”; in experiment [6], “binds”. For the same molecule, the binding result in experiment [7], in [8], in experiment [9], in [10] and in [11] was “binds” throughout.

B2: 21C5 mouse anti-human α9 integrin monoclonal antibody (FERM BP-10511) (antibody, mouse IgG1, V domains shown)
VH: VQLQESGGGLVKPGGSLKLSCAASGFTFSDYYMYWVRQTPEKRLEWVATISDGGNYTYYPDSVKGRFTISRDNAKNNLYLQMSSLKSEDTAMYYCARDRDGSSLFAYWGQGTTVTVSS
VL: KFMSTSVGDRVSITCKASQDVNIAVAWYQQRPGQSPKLLIYWASTRHTGVPDRFTGSGSGTDYTLTISSVQAEDLALYYCQQHYNTPWTFGGGTKLEIKR
notes: Mouse IgG1 from hybridoma; cloned with degenerate primers
For B2, the binding result in [12] is reported as “no binding”.

B3: 28S1 mouse anti-human α9 integrin monoclonal antibody (FERM BP-10832) (antibody, mouse IgG1, V domains shown)
VH: VKLQESGPGLVAPSQSLSITCTVSGFSLTGYGVNWVRQPPGKGLEWLGMIWGDGITEYNSALKSRLSISKDNSKSQVFLKMNSLQTDDTARYYCARDASSGYGFAYWGQGTTVTVSS
VL: YIVLTQSPAIMSASLGERVTMTCTASSSVSSSYLHWYQQKPGSSPKLWIYSTSNLASGVPARFSGSGSGTSYSLTISSMEAEDAATYYCHQYHRSPYTFGGGTKLEIKR
notes: Mouse IgG1 from hybridoma
For B3, the binding result in experiment [1] is “no binding”.

B4: 1K11 mouse anti-human α9 integrin monoclonal antibody (FERM BP-10510) (antibody, mouse IgG1, V domains shown)
VH: VQLQESGPELVKPGASVKIPCKASGYTFTDYNMDWVKQSHGKSLEWIGDINPNNGGTIYNQKFQGKATLTVDKSSSTAYMELRSLTSEDTAVYYCARSGVISTDYWGQGTTVTVSS
VL: DIQMTQSPPSLSASLGERVSLTCRASQEISGYLIWLQQKPDGTIQRLIYAASTLDSGVPKRFSGSRSGSDYSLTISSLESEDFADYYCLQYANYPPTFGGGTKLEIKR
notes: Mouse IgG1 from hybridoma
As to B4, the binding result is on record as “no binding” in experiment [12]; “binds” in experiment [13]; “binds” in [14]; “binds” in [2]; “binds” in [3]; “binds” in [4]. Besides, the binding result in experiment [5], in [6], in experiment [15], in [7], in experiment [8] and in experiment [9] was “binds” each time. The binding result in [10] and in experiment [11] was “binds” throughout.
